Two molecules from paper PMC7332683, “A ferredoxin-dependent dihydropyrimidine dehydrogenase in Clostridium chromiireducens” (Bioscience Reports, 2020) can be followed below.

Broadly, the Km is the concentration of substrate that gives half-maximal velocity. For orientation: kcat means the maximal rate divided by the concentration of active sites.

Data set [1] concerns the target T1, PydAc (Clostridium chromiireducens, UniProt A0A399ILH0).
T1 construct: gene preA; FMN and two Fdx domains, no FAD/NADPH domain; strain C1 (DSM12136) is given only for the growth test
T1 sequence (A0A399ILH0 1-499): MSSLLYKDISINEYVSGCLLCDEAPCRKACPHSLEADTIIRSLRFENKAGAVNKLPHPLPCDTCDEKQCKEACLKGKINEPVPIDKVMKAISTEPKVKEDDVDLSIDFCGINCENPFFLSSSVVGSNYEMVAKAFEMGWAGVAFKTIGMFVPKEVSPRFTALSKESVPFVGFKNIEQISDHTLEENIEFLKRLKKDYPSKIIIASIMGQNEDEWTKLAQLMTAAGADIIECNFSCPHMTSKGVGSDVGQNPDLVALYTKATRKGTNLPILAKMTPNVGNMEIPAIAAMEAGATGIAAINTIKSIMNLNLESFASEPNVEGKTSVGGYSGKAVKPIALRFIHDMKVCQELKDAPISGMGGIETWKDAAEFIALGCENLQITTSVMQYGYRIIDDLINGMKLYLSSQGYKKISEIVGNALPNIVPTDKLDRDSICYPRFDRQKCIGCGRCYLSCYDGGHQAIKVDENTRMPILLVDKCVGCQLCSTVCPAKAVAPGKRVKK
Put plainly: spectrophotometric assay of reduced methyl viologen oxidation at […] nm, anaerobic; activity with and without added FMN. It counts as biochemical. Conditions: 15 uM FMN added, uracil, pH 7.5, predominantly apo recombinant enzyme.

Substrate in data set [2]: O=c1cc[nH]c(=O)[nH]1
Description: purified protein. It counts as biochemical, Clostridium chromiireducens. The conditions noted are these: 0.1 mM reduced methyl viologen (MV+), 15 uM FMN, 0.1 M KCl, 20 mM Tris-HCl, pH 7.5, 0.2 uM reconstituted PydAc.

`Cc1cc2nc3c(=O)[nH]c(=O)nc-3n(C[C@H](O)[C@H](O)[C@H](O)COP(=O)(O)O)c2cc1C` [FMN]: the “spectrophotometric assay of reduced methyl viologen oxidation at 600 nm, anaerob” value in data set [1] is “omission of FMN from the assay mixture led to a large decrease in activity”.

B1: PydAc (Clostridium chromiireducens) (protein)
chain: T1 sequence (A0A399ILH0 1-499)
notes: FMN and two Fdx domains, no FAD/NADPH domain; strain C1 (DSM12136) is given only for the growth test
For B1, in data set [2], the Michaelis constant (Km) was 130 ± 30 µM and the kcat is 0.92 ± 0.04 s⁻¹.
